Values quoted from earlier work as cited in publication PMC3039521.

Biological target: Abl P-x-L-P-x-K motif (UniProt P00519)

## Crk SH3N (from UniProt P46108)
  Kd: 1000 nM
